Reference: publication PMC5915351

Molecular target: BmbC-C8S/S43C, fluorescein-labelled (bottromycin precursor peptide double variant) (Streptomyces bottropensis)
Experiment: fluorescence polarisation

Row | Molecule | Kd
1 | RRE domain excised from BmbF (radical-SAM methyltransferase) (domain or fragment) | 597 nM
2 | RRE domain excised from BmbB (radical-SAM methyltransferase) (domain or fragment) | 876 nM
3 | BmbE (YcaO protein, macrolactamidine-forming), maltose-binding protein fusion (enzyme) MTRPADPQTAPQTEAATETDPLTAVLLDGATKEDVPPERETDIRQALASVGDWLAAEGLTADIRKYGIESAPTYEVRLSEASGALCSRSSGKGLGHRSMASALFESAEHYHLDWRRDPRASEAEFRPGREIAEQATARRSALLGRLGQIMPDAPVLTRTYRPVEEALTGRAGDGEADGPHRHPVFLRDGGYRNWPHPDDDRSFQPLWHYTSSAGYAAGATRHEALVHAVNELIERDAWSYQLARSYFGLPGEGPELRVVEHGTLPAELRELTRTVEEVRGAPVLIVDITCDTGVPAYVVCDARSREDVRLIGSGASPVRTYAVQRALLEYLQVRTMFENGPVDADTEAGQIGTALARYPRHLAAARFDIHRLPHESTAFEADDGLPAATGPERLLRHLVDRLRESGVEAHHRVLTPPGPVTVVDVVAPGLEMFDKARAGYPVLPTGRLGERLRPRGDGGGARR | > 50000 nM
4 | BmbD (YcaO protein, thiazoline-forming), maltose-binding protein fusion (enzyme) MREATATECELREVVHRSYPSERTVTVRCTVRPAEGSAQADGYGTATTEAVARAKALSEAVERLVACTPFATVARPPTACADPGTGSGPVPPFPAAGVRTAPEGCAGRVYRPLTGGGPRRVPLYWSSPWTAGAELRAGTLTAAEARLSSTVGWAVAPTPEGALRGALLELTELIDYGVFLHRRLAGPARRPSAGDRTLVVPLGGIGRTPAVLAVAYGRGRLMPATGLGCGATRGEATDRALLELAQAETMWRSNPTAEPAERFFLRRFERWPLLARCATLDFDLPDPRDPPARSGPAGGPGPYDDGPCPASPLEELEAGGIRVWADSGAVDISGPDIPRTRLCFAHVVSDPQPLLGLVRAGIPVFDTGEVRRTLDPSRRPADRPADRGGHRDRSADRGPARRGHEGRRSA | > 50000 nM
